The values that follow come from paper PMC5303827 (Nature Communications, 2017).

Common to all, as to conditions: both partners purified
Experiment [1] concerns the target T1, Ufd2p (S. cerevisiae, UniProt P54860 1-961).
T1 construct: Ufd2p, S. cerevisiae, amino acids 1-961; also called wild-type Ufd2p; source: E. coli Rosetta (DE3), purified
T1 sequence (looked up): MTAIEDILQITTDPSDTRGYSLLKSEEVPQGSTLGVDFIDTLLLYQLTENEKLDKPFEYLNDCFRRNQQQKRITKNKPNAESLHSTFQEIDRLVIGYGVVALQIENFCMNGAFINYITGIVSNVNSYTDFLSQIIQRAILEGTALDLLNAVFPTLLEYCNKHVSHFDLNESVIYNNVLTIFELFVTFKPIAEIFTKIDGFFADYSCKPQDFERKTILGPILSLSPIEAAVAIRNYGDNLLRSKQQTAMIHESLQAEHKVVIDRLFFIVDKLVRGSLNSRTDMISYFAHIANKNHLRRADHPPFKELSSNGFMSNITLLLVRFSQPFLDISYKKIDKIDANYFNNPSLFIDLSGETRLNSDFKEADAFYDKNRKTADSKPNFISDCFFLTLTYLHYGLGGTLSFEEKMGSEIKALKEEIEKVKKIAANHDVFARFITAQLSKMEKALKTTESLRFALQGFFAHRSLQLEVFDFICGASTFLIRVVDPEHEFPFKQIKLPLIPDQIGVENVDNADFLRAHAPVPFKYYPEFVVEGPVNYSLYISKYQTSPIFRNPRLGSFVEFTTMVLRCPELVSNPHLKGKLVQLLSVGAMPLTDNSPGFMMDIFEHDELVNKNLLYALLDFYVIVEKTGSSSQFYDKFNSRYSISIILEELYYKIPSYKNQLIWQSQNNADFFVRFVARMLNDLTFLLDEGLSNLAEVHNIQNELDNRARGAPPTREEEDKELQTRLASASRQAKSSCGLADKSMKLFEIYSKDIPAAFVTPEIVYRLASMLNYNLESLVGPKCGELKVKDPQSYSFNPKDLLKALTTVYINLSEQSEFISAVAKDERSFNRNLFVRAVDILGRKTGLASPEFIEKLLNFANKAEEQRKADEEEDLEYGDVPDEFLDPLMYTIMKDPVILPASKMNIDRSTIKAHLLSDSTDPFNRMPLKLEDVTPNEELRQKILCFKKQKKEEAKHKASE
The experiment in a line: pull-down; GST-Rad23p used to pull down Ufd2p, Ufd2p N mut-1 or Ufd2p NLM; blot with anti-Ufd2; GST as control.

The target in experiment [2] is T2, Ufd2p NLM (S. cerevisiae, UniProt P54860 1-961, E51A | K52A | L53A | D54A | K55A | E105A | N106A | M109A | N110A).
T2 construct: Ufd2p, S. cerevisiae, amino acids 1-961, two N-terminal loops mutated to alanine; prey of the GST-Rad23p pull-down and enzyme of the ubiquitination reactions; also called Ufd2 NLM
T2 sequence (looked up): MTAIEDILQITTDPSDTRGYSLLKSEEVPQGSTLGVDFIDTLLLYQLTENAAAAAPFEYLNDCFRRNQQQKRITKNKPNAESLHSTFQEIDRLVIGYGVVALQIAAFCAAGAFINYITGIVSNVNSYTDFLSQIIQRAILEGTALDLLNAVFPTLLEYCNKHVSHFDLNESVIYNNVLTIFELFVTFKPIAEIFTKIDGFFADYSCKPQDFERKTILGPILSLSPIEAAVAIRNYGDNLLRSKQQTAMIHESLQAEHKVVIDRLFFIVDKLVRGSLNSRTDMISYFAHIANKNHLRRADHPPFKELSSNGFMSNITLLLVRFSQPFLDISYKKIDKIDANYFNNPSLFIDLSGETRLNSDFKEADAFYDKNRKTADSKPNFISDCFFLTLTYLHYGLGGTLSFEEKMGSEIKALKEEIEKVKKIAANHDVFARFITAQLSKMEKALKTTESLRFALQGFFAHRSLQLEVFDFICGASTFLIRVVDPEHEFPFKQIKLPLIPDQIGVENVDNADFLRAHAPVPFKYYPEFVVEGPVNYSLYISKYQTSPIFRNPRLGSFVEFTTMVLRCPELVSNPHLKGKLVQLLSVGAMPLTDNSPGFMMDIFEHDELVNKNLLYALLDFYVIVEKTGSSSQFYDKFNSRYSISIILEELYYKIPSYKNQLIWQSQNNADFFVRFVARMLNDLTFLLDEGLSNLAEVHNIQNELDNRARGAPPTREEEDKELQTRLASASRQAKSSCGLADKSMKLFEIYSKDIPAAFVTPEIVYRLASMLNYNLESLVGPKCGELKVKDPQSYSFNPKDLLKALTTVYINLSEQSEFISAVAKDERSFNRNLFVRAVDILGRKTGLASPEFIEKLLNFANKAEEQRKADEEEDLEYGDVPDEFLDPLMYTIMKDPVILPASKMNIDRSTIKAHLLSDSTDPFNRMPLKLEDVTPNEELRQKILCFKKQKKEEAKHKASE
The experiment is described as above.

Experiment [3] concerns the target T3, wild-type Ufd2p (GST pull-down with Rad23p, Supplementary Fig. 14) (S. cerevisiae, UniProt P54860 1-961).
T3 construct: Ufd2p, S. cerevisiae; amino acids 1-961; May be the same as m2 if Ufd2p was the GST-tagged bait
T3 sequence (looked up): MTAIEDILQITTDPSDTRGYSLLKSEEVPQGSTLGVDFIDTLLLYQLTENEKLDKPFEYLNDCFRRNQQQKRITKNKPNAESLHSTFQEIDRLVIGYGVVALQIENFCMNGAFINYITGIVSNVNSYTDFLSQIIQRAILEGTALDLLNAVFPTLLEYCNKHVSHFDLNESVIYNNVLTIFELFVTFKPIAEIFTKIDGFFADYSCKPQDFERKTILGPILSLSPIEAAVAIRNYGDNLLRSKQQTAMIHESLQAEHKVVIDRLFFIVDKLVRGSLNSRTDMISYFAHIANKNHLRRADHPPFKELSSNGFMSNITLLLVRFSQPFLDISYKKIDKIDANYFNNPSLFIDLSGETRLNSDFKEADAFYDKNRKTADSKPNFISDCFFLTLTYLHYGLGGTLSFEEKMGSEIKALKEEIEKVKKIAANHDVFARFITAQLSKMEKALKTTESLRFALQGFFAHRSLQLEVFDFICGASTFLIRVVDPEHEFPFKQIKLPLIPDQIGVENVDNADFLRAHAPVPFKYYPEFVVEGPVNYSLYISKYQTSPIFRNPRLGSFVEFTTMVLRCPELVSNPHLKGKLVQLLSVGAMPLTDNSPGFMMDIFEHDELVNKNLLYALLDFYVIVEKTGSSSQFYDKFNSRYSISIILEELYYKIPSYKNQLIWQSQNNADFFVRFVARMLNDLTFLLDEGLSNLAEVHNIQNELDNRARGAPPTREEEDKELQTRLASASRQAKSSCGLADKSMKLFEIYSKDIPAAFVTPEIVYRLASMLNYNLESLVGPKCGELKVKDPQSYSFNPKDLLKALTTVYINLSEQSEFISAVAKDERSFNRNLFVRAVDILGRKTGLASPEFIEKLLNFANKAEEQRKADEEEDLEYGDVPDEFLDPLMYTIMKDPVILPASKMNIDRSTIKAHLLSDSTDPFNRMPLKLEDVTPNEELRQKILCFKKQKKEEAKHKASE
The experiment in a line: pull-down; GST pull-down of Ufd2p or Ufd2p NLM with Rad23p (Supplementary Fig. 14); which partner carried GST is not told.

Experiment [4] concerns the target T4, Ufd2p NLM (GST pull-down with Rad23p, Supplementary Fig. 14) (S. cerevisiae, UniProt P54860 1-961, E51A | K52A | L53A | D54A | K55A | E105A | N106A | M109A | N110A).
T4 construct: Ufd2p, S. cerevisiae; 1-961 with residues of the two N-terminal loops mutated to alanine; May be the same as m12 if Ufd2p NLM was the GST-tagged bait
T4 sequence (looked up): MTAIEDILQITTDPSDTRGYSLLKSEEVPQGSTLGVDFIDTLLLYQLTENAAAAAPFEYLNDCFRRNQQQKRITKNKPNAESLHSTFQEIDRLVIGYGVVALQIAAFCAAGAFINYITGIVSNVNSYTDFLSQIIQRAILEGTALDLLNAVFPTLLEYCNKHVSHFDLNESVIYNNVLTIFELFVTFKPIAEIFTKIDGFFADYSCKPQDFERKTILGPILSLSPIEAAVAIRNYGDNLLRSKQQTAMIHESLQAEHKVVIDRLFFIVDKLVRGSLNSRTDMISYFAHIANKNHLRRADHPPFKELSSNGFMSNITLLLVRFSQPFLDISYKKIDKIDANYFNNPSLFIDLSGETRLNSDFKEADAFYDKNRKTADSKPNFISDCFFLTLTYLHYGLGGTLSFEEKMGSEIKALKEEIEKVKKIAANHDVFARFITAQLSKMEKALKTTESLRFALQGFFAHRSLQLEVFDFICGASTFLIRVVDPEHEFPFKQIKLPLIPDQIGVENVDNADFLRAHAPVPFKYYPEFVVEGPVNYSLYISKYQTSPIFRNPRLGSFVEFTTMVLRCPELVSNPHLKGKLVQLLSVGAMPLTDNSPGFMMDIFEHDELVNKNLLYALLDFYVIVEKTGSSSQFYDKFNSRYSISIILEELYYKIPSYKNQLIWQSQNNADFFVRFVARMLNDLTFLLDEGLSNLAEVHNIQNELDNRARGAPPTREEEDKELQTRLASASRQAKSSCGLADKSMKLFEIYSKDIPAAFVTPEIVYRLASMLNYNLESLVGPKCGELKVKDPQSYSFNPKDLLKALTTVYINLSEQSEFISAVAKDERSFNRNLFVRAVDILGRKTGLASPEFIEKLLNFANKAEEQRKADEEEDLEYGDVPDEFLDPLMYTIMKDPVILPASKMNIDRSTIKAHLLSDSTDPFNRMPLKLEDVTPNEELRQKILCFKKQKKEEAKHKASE
Described as above.

B1: GST-Rad23p (natural protein, S. cerevisiae, UniProt P32628 1-398, looked up)
chain: MVSLTFKNFKKEKVPLDLEPSNTILETKTKLAQSISCEESQIKLIYSGKVLQDSKTVSECGLKDGDQVVFMVSQKKSTKTKVTEPPIAPESATTPGRENSTEASPSTDASAAPAATAPEGSQPQEEQTATTERTESASTPGFVVGTERNETIERIMEMGYQREEVERALRAAFNNPDRAVEYLLMGIPENLRQPEPQQQTAAAAEQPSTAATTAEQPAEDDLFAQAAQGGNASSGALGTTGGATDAAQGGPPGSIGLTVEDLLSLRQVVSGNPEALAPLLENISARYPQLREHIMANPEVFVSMLLEAVGDNMQDVMEGADDMVEGEDIEVTGEAAAAGLGQGEGEGSFQVDYTPEDDQAISRLCELGFERDLVIQVYFACDKNEEAAANILFSDHAD
notes: Rad23p, ubiquitin receptor for the proteasome, yeast; source: E. coli Rosetta (DE3), purified (Glutathione Sepharose 4B, size exclusion chromatography); not shown: GST, N-terminal, kept
Take B1: the binding result in experiment [1] and in experiment [2] was “binds” in each case.

B2: Rad23p (GST pull-down with Ufd2p, Supplementary Fig. 14) (natural protein, UniProt P32628 1-398, looked up)
chain: MVSLTFKNFKKEKVPLDLEPSNTILETKTKLAQSISCEESQIKLIYSGKVLQDSKTVSECGLKDGDQVVFMVSQKKSTKTKVTEPPIAPESATTPGRENSTEASPSTDASAAPAATAPEGSQPQEEQTATTERTESASTPGFVVGTERNETIERIMEMGYQREEVERALRAAFNNPDRAVEYLLMGIPENLRQPEPQQQTAAAAEQPSTAATTAEQPAEDDLFAQAAQGGNASSGALGTTGGATDAAQGGPPGSIGLTVEDLLSLRQVVSGNPEALAPLLENISARYPQLREHIMANPEVFVSMLLEAVGDNMQDVMEGADDMVEGEDIEVTGEAAAAGLGQGEGEGSFQVDYTPEDDQAISRLCELGFERDLVIQVYFACDKNEEAAANILFSDHAD
notes: Rad23p; May be the same as m19 if Rad23p was the GST-tagged bait
In the case of B2, the binding result in experiment [3] and in experiment [4] was “binds” each time.
